From patent WO2012008397A1 (dated 2012)
Substitutions are numbered along the chain they refer to.

B1: 348-H4-357-L4 (antibody, human IgG1, kappa, V domains shown)
VH: QVQLVQSGAEVKKPGASVKVSCKASGYTFTHYSMHWVRQAPGQGLEWMGWINTYTGEPTYADDFKGRFVFSLDTSVSTAYLQLSSLKAEDTAVYYCATYYRYERDFDYWGQGTLVTVSS
VL: DIVMTQSPLSLPVTPGEPASISCRSSQSIVHSSGITYLEWYLQKPGQSPQLLIYKVSNRFSGVPDRFSGSGSGTDFTLKISRVEAEDVGVYYCFQGSHVPYTFGQGTKVEIKR
notes: human IgG1 / kappa; also called antibody of humanized heavy chain of SH348-1 and humanized light chain of SH357-1; swapped antibody
B2: 348-H4-357-L5 (antibody, human IgG1, kappa, V domains shown)
VH: B1 VH
VL: B1 VL with I2V, V3L, Q50K
notes: human IgG1 / kappa
B3: 348-H5-357-L4 (antibody, human IgG1, kappa, V domains shown)
VH: B1 VH with R38K, E46K, V69A, D73E, Y95F
VL: B1 VL
notes: human IgG1 / kappa
B4: 348-H5-357-L5 (antibody, human IgG1, kappa, V domains shown)
VH: B1 VH with R38K, E46K, V69A, D73E, Y95F
VL: B1 VL with I2V, V3L, Q50K
notes: human IgG1 / kappa

Target: T1, His-Fibronectin type III domain (426-540) (human, UniProt P29317 426-540)
T1 construct: also called His-Fibrinctin type III domain (426-540); Fibronectin type III domain of EPHA2; not shown: histidine tag added to the amino terminus
Assay: SPR (Biacore T100), antibody captured on anti-human IgG(Fc), antigen as analyte, 1:1 model

T1 sequence (P29317 426-540): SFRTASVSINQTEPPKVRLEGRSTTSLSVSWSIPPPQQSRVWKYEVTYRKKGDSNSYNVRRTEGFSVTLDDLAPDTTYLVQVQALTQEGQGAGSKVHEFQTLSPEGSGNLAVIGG

Binder | Kd [nM]
B1 | 0.37
B2 | 0.37
B3 | 0.32
B4 | 0.3
